These results are taken from paper PMC10730688.

For the test, the target named is phosphonull human rod opsin 6A mutant (human) (UniProt P08100).

“human visual arrestin (rod arrestin, arrestin-1), wildtype (from UniProt P10523 1-405) (natural protein)” came in with a Toff in the BRET G-protein activation assay, untethered co-expression of Rod6A and ArrWT (comparison for the Rod6A-ArrWT fusions) of 1240 s.
